Experiments:
[1] = target: T1, MBP-protA fragment aa 255–480 (Wuhan nodavirus (WhNV), UniProt Q3KSM3 255-480); assay: pull-down; MBP fusion protein (1 µM) held on amylose resin, His-tagged protein (1 µM) in vitro translated in rabbit reticulocyte lysate; room temperature, 4 hrs; no lipids; Western blot with anti-His; signals given as % of FL to FL protein A self-interaction; conditions: one partner purified
T1 construct: source: E. coli strain TB1, purified (amylose resin); not shown: MBP, N-terminal, kept
T1 sequence: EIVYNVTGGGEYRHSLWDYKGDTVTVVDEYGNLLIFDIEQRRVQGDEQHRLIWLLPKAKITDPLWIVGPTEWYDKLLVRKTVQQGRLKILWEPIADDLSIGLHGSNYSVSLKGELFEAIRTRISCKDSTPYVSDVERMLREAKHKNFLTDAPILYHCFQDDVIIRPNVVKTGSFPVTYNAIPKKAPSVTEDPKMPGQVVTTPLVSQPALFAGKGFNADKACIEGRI

[2] = target: T2, MBP-protA fragment aa 1–254 (Wuhan nodavirus (WhNV), UniProt Q3KSM3 1-254); assay: as above; conditions: one partner purified
T2 construct: also called 1–254 MBP/protA; source: E. coli strain TB1, purified (amylose resin); not shown: MBP, N-terminal, kept
T2 sequence: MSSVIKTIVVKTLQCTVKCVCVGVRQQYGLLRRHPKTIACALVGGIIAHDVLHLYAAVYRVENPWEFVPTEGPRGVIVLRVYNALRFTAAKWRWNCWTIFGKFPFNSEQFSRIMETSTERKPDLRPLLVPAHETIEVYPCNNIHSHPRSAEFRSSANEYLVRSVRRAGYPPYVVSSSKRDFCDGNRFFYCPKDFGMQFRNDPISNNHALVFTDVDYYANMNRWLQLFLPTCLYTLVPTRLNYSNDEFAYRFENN

[3] = target: the molecule itself; assay: cross-linking; MBP-tagged protein in cross-linking buffer (10 mM HEPES pH 7.4, 50 mM MgCl2, 1 mM DTT, 1% glycerol, 0.03% glutaraldehyde), then 10% SDS-PAGE
[4] = target: T3, MBP-protA fragment aa 481–659 (Wuhan nodavirus (WhNV), UniProt Q3KSM3 481-659); assay: pull-down; MBP fusion protein (1 µM) held on amylose resin, His-tagged protein (1 µM) in vitro translated in rabbit reticulocyte lysate; room temperature, 4 hrs; no lipids; Western blot with anti-His; signals given as % of FL to FL protein A self-interaction; conditions: one partner purified
T3 construct: source: E. coli strain TB1, purified (amylose resin); not shown: MBP, N-terminal, kept
T3 sequence: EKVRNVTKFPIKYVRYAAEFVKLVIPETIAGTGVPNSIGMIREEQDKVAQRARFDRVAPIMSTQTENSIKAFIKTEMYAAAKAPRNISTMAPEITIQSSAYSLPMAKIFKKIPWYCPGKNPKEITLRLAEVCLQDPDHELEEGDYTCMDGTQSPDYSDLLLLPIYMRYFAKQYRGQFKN

B1: His-protA fragment aa 255–480, in vitro translated (domain or fragment)
chain: T1 sequence
notes: source: in vitro translated in nuclease-treated rabbit reticulocyte lysates
homotypic interaction, % of FL to FL protein A self-interaction [1]: 55%

B2: His-protA fragment aa 1–254, in vitro translated (domain or fragment)
chain: T2 sequence
notes: also called 1–254 His/protA; wt protein A fragment aa 1–254; source: in vitro translated in nuclease-treated rabbit reticulocyte lysates
homotypic interaction, % of FL to FL protein A self-interaction [2]: 73%

B3: MBP-tagged full-length (FL) WhNV protein A (natural protein)
chain: MSSVIKTIVVKTLQCTVKCVCVGVRQQYGLLRRHPKTIACALVGGIIAHDVLHLYAAVYRVENPWEFVPTEGPRGVIVLRVYNALRFTAAKWRWNCWTIFGKFPFNSEQFSRIMETSTERKPDLRPLLVPAHETIEVYPCNNIHSHPRSAEFRSSANEYLVRSVRRAGYPPYVVSSSKRDFCDGNRFFYCPKDFGMQFRNDPISNNHALVFTDVDYYANMNRWLQLFLPTCLYTLVPTRLNYSNDEFAYRFENNEIVYNVTGGGEYRHSLWDYKGDTVTVVDEYGNLLIFDIEQRRVQGDEQHRLIWLLPKAKITDPLWIVGPTEWYDKLLVRKTVQQGRLKILWEPIADDLSIGLHGSNYSVSLKGELFEAIRTRISCKDSTPYVSDVERMLREAKHKNFLTDAPILYHCFQDDVIIRPNVVKTGSFPVTYNAIPKKAPSVTEDPKMPGQVVTTPLVSQPALFAGKGFNADKACIEGRIEKVRNVTKFPIKYVRYAAEFVKLVIPETIAGTGVPNSIGMIREEQDKVAQRARFDRVAPIMSTQTENSIKAFIKTEMYAAAKAPRNISTMAPEITIQSSAYSLPMAKIFKKIPWYCPGKNPKEITLRLAEVCLQDPDHELEEGDYTCMDGTQSPDYSDLLLLPIYMRYFAKQYRGQFKNLYNQIYKQRATTSSGVPYNPEMTIRSGSSITTHAGTLNNAFNIYAALRDMGYDETTAWDKVGAVFGDDSLNANHQGEFHSYIEHVTKVLGMRYKSNLRERGQPVLFLGRYFVDPITSYDSFADPMRTIGKLHATANKNVSVEQGAANKAHGYITTDSKTPIIGAWARRVLEITKKKFKNGTGEEQYRCSNAWPQKDEAAIRAAMAAVLEVDEAQLIAQNEAVLKVNSLDQFPVVFDTYYDHKQLAEVDGQLVGTDLHIKEEDERQPETSIDSVPSTGPPPSNGDPNAGGKPTDGPSKGKRKVKGRRPRTAGDPATLRLTDAGSSRRVKPPRKLRPEAKRGGRPIETLVFKNSSLS
notes: also called MBP-protA; 1–1014 MBP/protA; source: E. coli strain TB1, purified (amylose resin); not shown: MBP, N-terminal, kept
stoichiometry N [3]: 2

B4: His-protA fragment aa 481–659, in vitro translated (domain or fragment)
chain: T3 sequence
notes: as for B1
homotypic interaction, % of FL to FL protein A self-interaction [4]: 2%

— article PMC3934934, “The Self-Interaction of a Nodavirus Replicase Is Enhanced by Mitochondrial Membrane Lipids” (PLoS ONE, 2014)
